Measurements: patent publication US20100291088A1 (published 2010)

Biological target: (4C/A)-huIL-18 (human, UniProt Q14116 37-193)
Assay: cell-based or functional assay

B1: IL-18BP-Fc (Fc fusion, UniProt O95998 31-194, looked up, not shown: a dimerising Fc or GST)
chain: TPVSQTTTAATASVRSTKDPCPSQPPVFPAAKQCPALEVTWPEVEVPLNGTLSLSCVACSRFPNFSILYWLGNGSFIEHLPGRLWEGSTSRERGSTGTQLCKALVLEQLTPALHSTNFSCVLVDPEQVVQRHVVLAQLWAGLRATLPPTQEALPSSHSSPQQQG
- KG-1 neutralization potency in vitro (IC50, nM): 0.03 nM
